Values of other authors, collected in paper PMC3670934.
pKd: −log10 of the molar value.

Assays:
CCL11 (Homo sapiens) = CCL11 (Homo sapiens) (UniProt P51671)
CCL26 (Homo sapiens) = CCL26 (Homo sapiens) (UniProt Q9Y258)
CCL24 (Homo sapiens) = CCL24 (Homo sapiens) (UniProt O00175)
Chain of CCL24 (Homo sapiens) (O00175 27-119): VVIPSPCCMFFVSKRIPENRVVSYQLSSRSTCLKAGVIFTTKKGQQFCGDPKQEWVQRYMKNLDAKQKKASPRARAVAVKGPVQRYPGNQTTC

Chain of CCR3 (P51677 whole entry): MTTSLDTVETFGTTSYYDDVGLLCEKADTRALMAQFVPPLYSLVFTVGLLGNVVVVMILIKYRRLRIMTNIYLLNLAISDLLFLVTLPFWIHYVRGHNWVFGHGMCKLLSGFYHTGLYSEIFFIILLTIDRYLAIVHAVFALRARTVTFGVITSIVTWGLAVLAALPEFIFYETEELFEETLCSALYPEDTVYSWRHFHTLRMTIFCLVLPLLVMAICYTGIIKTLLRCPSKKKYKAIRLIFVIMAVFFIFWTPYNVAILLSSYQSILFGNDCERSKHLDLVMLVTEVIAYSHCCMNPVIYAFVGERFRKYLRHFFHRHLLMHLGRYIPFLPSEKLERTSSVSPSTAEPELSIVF
Chain of CCL11 (Homo sapiens) (P51671 24-97): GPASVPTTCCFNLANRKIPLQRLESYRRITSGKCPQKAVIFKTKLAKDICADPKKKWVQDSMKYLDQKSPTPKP
Chain of CCL26 (Homo sapiens) (Q9Y258 24-94): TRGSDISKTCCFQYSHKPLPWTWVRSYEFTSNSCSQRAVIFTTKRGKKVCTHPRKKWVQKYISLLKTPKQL

CCR3 (from UniProt P51677)
pKd (CCL11 (Homo sapiens)): 9.28
pKd (CCL26 (Homo sapiens)): 9.05
pKd (CCL24 (Homo sapiens)): 9.22
